Measured values as given in the supplement of paper PMC12338614.
± gives the uncertainty stated by the source.

B1: library; numbered along this chain (parent)
chain: MEVVDPQQLGMFTEGELMSVGMDTFIHRIDSTEVIYQPRRKRAKLIGKYLMGDLLGEGSYGKVKEVLDSETLCRRAVKILKKKKLRRIPNGEANVKKEIQLLRRLRHKNVIQLVDVLYNEEKQKMYMVMEYCVCGMQEMLDSVPEKRFPVCQAHGYFCQLIDGLEYLHSQGIVHKDIKPGNLLLTTGGTLKISDLGVAEALHPFAADDTCRTSQGSPAFQPPEIANGLDTFSGFKVDIWSAGVTLYNITTGLYPFEGDNIYKLFENIGKGSYAIPGDCGPPLSDLLKGMLEYEPAKRFSIRQIRQHSWFRKKHPPAEAPVPIPPSPDTKDRWRSMTVVPYLEDLHGADEDEDLFDIEDDIIYTQDFTVPGQVPEEEASHNGQRRGLPKAVCMNGTEAAQLSTKSRAEGRAPNPARKACSASSKIRRLSACKQQ

Variants of: B1
Assay: STK11 functional score (HeLa growth suppression), rescaled enrichment; synonymous median = 1, nonsense median = 0 (normalised score)
Conditions: with HeLa; variant type: missense
Outline: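 The values are functional scores: wild-type-corrected log ratios of post- versus pre-selection abundance, rescaled to synonymous and nonsense medians, merged over codons and replicate transfections, and carrying bootstrapped error. They derive from codon-randomised (POPCode), codon-optimised STK11 libraries that Bxb1 integrated at an AAVS1 landing pad in HeLa, with three transfections for each of three regions. Sequencing of tiled gDNA amplicons ran on NextSeq, at ~2 million reads per tile.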

STK11 functional score: each site, then its substitutions
E349: Y 0.952 ± 0.56; A 1.5 ± 0.13; P 1.41 ± 0.14; I 1.05 ± 0.55; T 1.51 ± 0.13; C 1.1 ± 0.42; N 1.48 ± 0.19; F 0.989 ± 0.64; S 1.38 ± 0.28; V 1.16 ± 0.37; L 1.47 ± 0.14; Q 1.16 ± 0.57; R 1.37 ± 0.15; D 1.35 ± 0.44; W 1.14 ± 0.5; M 1.33 ± 0.32; G 0.983 ± 0.3
E357: L 1.54 ± 0.31; H 1.6 ± 0.17; Y 1.39 ± 0.26; R 1.36 ± 0.17; W 0.957 ± 0.15; S 1.52 ± 0.15; M 1.52 ± 0.29; D 0.56 ± 0.73; A 1.12 ± 0.49; C 1.36 ± 0.37; P 1.58 ± 0.14; T 1.56 ± 0.17; Q 1.13 ± 0.47; V 1.33 ± 0.25; I 1.56 ± 0.26; G 1.47 ± 0.23; F 0.965 ± 0.41
D352: Y 0.953 ± 0.14; Q 0.828 ± 0.15; E 1.15 ± 0.64; A 0.984 ± 0.58; K 1.55 ± 0.13; S 1.57 ± 0.14; P 1.6 ± 0.14; C 1.34 ± 0.34; M 1.2 ± 0.33; L 1.62 ± 0.15; T 1.57 ± 0.15; R 1.61 ± 0.15; N 1.09 ± 0.8; H 1.27 ± 0.41; V 1.12 ± 0.24; W 0.86 ± 0.64
F354: M 1.51 ± 0.23; I 1.32 ± 0.16; R 1.53 ± 0.16; V 1.3 ± 0.21; E 1.45 ± 0.27; K 1.57 ± 0.22; C 0.742 ± 0.34; A 1.54 ± 0.21; Y 1.31 ± 0.15; P 1.42 ± 0.14; L 1.12 ± 0.22; H 1.34 ± 0.28; G 1.09 ± 0.23; W 0.138 ± 0.13; S 1.34 ± 0.26; Q 1.61 ± 0.14; T 0.37 ± 0.26; N 1.6 ± 0.19
E351: S 1.4 ± 0.14; R 1.26 ± 0.16; L 1.43 ± 0.25; Q 1.28 ± 0.6; T 1.52 ± 0.18; F 1.19 ± 0.47; G 1.33 ± 0.12; I 1.27 ± 0.15; P 1.55 ± 0.14; W 1.48 ± 0.16; V 1.36 ± 0.18; Y 1.23 ± 0.39; M 0.992 ± 0.19; C 1.06 ± 0.11; H 0.374 ± 0.082; D 0.951 ± 0.63
H345: F 1.41 ± 0.33; M 1.54 ± 0.17; P 1.29 ± 0.27; S 1.18 ± 0.2; W 1.56 ± 0.11; T 1.57 ± 0.17; I 1.44 ± 0.22; C 1.2 ± 0.49; L 1.2 ± 0.16; A 1.56 ± 0.14; V 1.22 ± 0.44; Y 1.12 ± 0.3; R 1.58 ± 0.15; G 1.49 ± 0.39; D 1.27 ± 0.37
D359: I 0.856 ± 0.075; S 1.15 ± 0.22; A 1.4 ± 0.15; T 1.57 ± 0.21; E 0.865 ± 0.47; R 1.52 ± 0.19; L 1.53 ± 0.17; W 1.07 ± 0.22; P 1.5 ± 0.3; C 1.14 ± 0.33; Y 1.13 ± 0.21; H 1.21 ± 0.39; V 1.05 ± 0.17; G 1.36 ± 0.2; M 1.6 ± 0.14
I360: A 1.6 ± 0.15; N 1.11 ± 0.67; K 1.31 ± 0.4; D 0.487 ± 0.42; G 1.44 ± 0.23; M 0.866 ± 0.14; F 0.809 ± 0.12; L 1.13 ± 0.16
G346: M 1.58 ± 0.15; L 1.38 ± 0.15; I 1.18 ± 0.33; E 1.35 ± 0.74; D 0.435 ± 0.27; H 1.6 ± 0.14; P 1.61 ± 0.14; C 1.22 ± 0.13; N 1.6 ± 0.19; K 1.61 ± 0.25; R 1.56 ± 0.26; T 1.62 ± 0.21; Q 1.61 ± 0.14; A 1.57 ± 0.28; S 1.48 ± 0.22; F 1.29 ± 0.54; Y 1.57 ± 0.17; V 0.838 ± 0.7
A347: R 1.54 ± 0.18; Y 1.34 ± 0.44; L 1.46 ± 0.16; I 1.52 ± 0.17; H 0.00438 ± 0.16; F 1.37 ± 0.25; S 1.42 ± 0.18; T 1.33 ± 0.14; W 1.59 ± 0.16; V 1.23 ± 0.32; M 1.54 ± 0.17; G 1.12 ± 0.28; P 1.21 ± 0.28
D350: Y 1.45 ± 0.34; T 1.47 ± 0.14; V 1.19 ± 0.34; N 1.07 ± 0.72; F 0.0925 ± 0.3; H 1.27 ± 0.29; I 1.25 ± 0.2; A 0.867 ± 0.29; C 1.51 ± 0.31; R 1.61 ± 0.17; Q 1.49 ± 0.19; S 0.53 ± 0.49; P 1.48 ± 0.16; M 1.65 ± 0.15; G 1.29 ± 0.28; E 1.25 ± 0.56; L 1.6 ± 0.16; W 1.6 ± 0.19
L353: S 1.6 ± 0.14; W 1.12 ± 0.64; A 1.56 ± 0.24; G 1.52 ± 0.15; D 1.61 ± 0.16; C 1.17 ± 0.72; N 1.56 ± 0.21; H 1.4 ± 0.68; P 1.12 ± 0.72; V 1.42 ± 0.31; I 1.19 ± 0.15; R 1.57 ± 0.17; F 1.27 ± 0.6; T 1.45 ± 0.16; Y 1.4 ± 0.4
E342: P 1.53 ± 0.15; A 1.11 ± 0.29; L 1.26 ± 0.25; C 1.21 ± 0.35; Y 1.38 ± 0.12; F 1.14 ± 0.25; I 1.42 ± 0.26; G 1 ± 0.34; W 1.19 ± 0.28; D 0.774 ± 0.55; N 1.4 ± 0.14; Q 1.23 ± 0.3; V 1.46 ± 0.17; S 1.39 ± 0.25; K 1.61 ± 0.47; T 1.58 ± 0.15; R 1.54 ± 0.21; M 1.46 ± 0.14
L344: I 1.13 ± 0.43; G 0.8 ± 0.41; K 1.59 ± 0.27; E 1.28 ± 0.53; D 1.46 ± 0.17; Y 0.904 ± 0.2; V 1.42 ± 0.27; R 1.46 ± 0.25; C 1.12 ± 0.45; A 1.51 ± 0.15; W 1.54 ± 0.19; F 0.831 ± 0.38; H 1.14 ± 0.19; T 1.56 ± 0.17; S 1.43 ± 0.18
D348: M 0.896 ± 0.66; G 1.26 ± 0.17; L 1.3 ± 0.15; S 1.59 ± 0.16; N 0.723 ± 0.63; Y 0.868 ± 0.53; A 1.54 ± 0.24; H 1.18 ± 0.6; V 0.78 ± 0.44; Q 1.54 ± 0.22; I 1.41 ± 0.13; R 1.2 ± 0.26; P 1.59 ± 0.14; W 1.58 ± 0.25; T 1.57 ± 0.27
D343: P 1.33 ± 0.15; A 1.47 ± 0.29; Y 1.29 ± 0.41; M 1.57 ± 0.2; I 1.57 ± 0.18; F 1.32 ± 0.39; G 1.41 ± 0.26; H 0.726 ± 0.38; Q 0.992 ± 0.12; V 1.21 ± 0.64; W 1.55 ± 0.14; N 1.02 ± 0.59; E 1.45 ± 0.56; S 1.35 ± 0.16; T 1.53 ± 0.14; L 0.93 ± 0.25; R 1.11 ± 0.2; C 1.44 ± 0.35
P339: R 1.16 ± 0.52; N 0.366 ± 0.35; W 1.6 ± 0.17; I 1.52 ± 0.15; L 0.979 ± 0.25; V 0.729 ± 0.19; Q 1.52 ± 0.16; S 1.42 ± 0.2; Y 1.21 ± 0.39; M 1.62 ± 0.14
I356: R 1.19 ± 0.38; T 1.58 ± 0.43; F 1.15 ± 0.18; P 1.6 ± 0.26; L 1.15 ± 0.38; Q 1.58 ± 0.21; Y 1.12 ± 0.18; E 1.62 ± 0.14; S 0.889 ± 0.32; M 1.21 ± 0.53; A 1.5 ± 0.25; H 1.51 ± 0.22; G 1.45 ± 0.37; N 1.45 ± 0.62; V 1.46 ± 0.28; D 1.27 ± 0.43; W 1.66 ± 0.25
D355: C 1.31 ± 0.13; E 1.02 ± 0.47; Q 1.28 ± 0.16; H 1.11 ± 0.65; S 1.48 ± 0.18; L 1.58 ± 0.14; W 1.57 ± 0.17; R 1.43 ± 0.22; I 1.18 ± 0.42; V 1.14 ± 0.18; P 1.53 ± 0.2; A 0.938 ± 0.15; G 1.63 ± 0.25
D358: Q 1.49 ± 0.3; A 1.27 ± 0.15; V 1.46 ± 0.2; P 0.725 ± 0.8; G 1.08 ± 0.14; R 1.34 ± 0.27; H 0.325 ± 0.53; N 0.776 ± 0.53; S 1.47 ± 0.25; L 1.56 ± 0.17; W 1.46 ± 0.16; C 1.53 ± 0.14; E 0.693 ± 0.27; I 1.15 ± 0.46
Y340: K 1.6 ± 0.14; V 1.6 ± 0.27; T 1.58 ± 0.14; D 0.511 ± 0.17; F 1.04 ± 0.49; C 1.63 ± 0.13; L 1.59 ± 0.16; A 1.56 ± 0.17; N 1.03 ± 0.63; I 0.334 ± 0.27; S 1.3 ± 0.28
L341: M 1.63 ± 0.46; D 1.6 ± 0.17; E 1.55 ± 0.15; R 1.21 ± 0.14; A 1.51 ± 0.15; Q 1.59 ± 0.17; G 1.46 ± 0.18; F 0.562 ± 0.13; I 1.56 ± 0.18; W 1.25 ± 0.43; S 0.93 ± 0.16; V 1.33 ± 0.26; N 1.52 ± 0.19; H 0.315 ± 0.23; C 1.38 ± 0.17; T 1.29 ± 0.32; P 1.54 ± 0.14
